The source of these data is doi:10.1101/2025.05.03.652001.

This assay has as its target E. coli lipoic acid ligase (LplA) variant A48N on the W37V background (E. coli). Description: SEC-SAXS; SEC-SAXS of purified LplA variant with lipoyl-AMS; DENSS ab initio envelope fitted with the major conformer; high protein concentrations required for SAXS; dimer model generated by AlphaFold3. In general terms: Size exclusion chromatography separates by hydrodynamic size, large species first.

By stoichiometry N is commonly meant a count of units in the complex or per binding partner. In the case of “E. coli lipoic acid ligase (LplA) variant A48N on the W37V background (enzyme)”, the stoichiometry N came out at 2.
